4 substances from PMC8886820 can be followed below.

Like-named read-outs stand apart in the source and are kept apart here.

Assay [1] addresses Taxol-stabilized microtubules (UniProt P02550). The assay is described as follows: TIRF microscopy of EGFP-tagged protein on surface-held microtubules.
In assay [2] the target is phospho-10xMEED (MBP-Spc105(10xMEED)-TST phosphorylated by activated Sli15(INBOX)-Ipl1) (D. melanogaster). The assay is described as follows: pull-down.
The target of assay [3] is MBP-Spc105(10xMEED)-TST (D. melanogaster). As to the kind of experiment: pull-down.
Assay [4] concerns the target Taxol-stabilized microtubules (UniProt P02550). As to the kind of experiment: TIRF microscopy of EGFP-tagged protein on surface-held microtubules. The source holds these as a separate data set.

Sequence of Taxol-stabilized microtubules (P02550 whole entry, chain 1 of 2): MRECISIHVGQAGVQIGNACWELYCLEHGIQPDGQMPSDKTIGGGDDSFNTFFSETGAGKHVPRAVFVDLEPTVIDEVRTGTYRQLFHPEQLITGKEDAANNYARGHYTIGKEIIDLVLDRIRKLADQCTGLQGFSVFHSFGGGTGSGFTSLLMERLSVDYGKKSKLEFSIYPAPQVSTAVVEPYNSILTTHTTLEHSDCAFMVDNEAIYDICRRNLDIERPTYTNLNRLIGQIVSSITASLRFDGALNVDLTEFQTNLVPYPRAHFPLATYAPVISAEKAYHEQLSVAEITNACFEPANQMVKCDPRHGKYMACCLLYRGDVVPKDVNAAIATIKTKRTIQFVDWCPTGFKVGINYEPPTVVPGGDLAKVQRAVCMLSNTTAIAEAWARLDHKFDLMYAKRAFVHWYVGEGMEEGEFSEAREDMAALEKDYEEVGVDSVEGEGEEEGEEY
Sequence of Taxol-stabilized microtubules (P02554 whole entry, chain 2 of 2, further chain): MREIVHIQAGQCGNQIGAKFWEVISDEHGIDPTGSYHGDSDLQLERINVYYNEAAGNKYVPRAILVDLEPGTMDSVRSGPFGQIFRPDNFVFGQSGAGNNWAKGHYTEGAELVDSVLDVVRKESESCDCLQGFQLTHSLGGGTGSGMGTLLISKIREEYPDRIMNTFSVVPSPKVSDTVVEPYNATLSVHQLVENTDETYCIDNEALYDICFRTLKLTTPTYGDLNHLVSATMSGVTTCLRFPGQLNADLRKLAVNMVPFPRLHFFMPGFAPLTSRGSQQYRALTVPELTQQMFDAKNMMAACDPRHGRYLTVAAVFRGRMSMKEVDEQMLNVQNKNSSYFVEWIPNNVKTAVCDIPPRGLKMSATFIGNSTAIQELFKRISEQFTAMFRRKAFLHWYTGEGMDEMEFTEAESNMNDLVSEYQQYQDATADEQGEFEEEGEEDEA

Consider “Spc105-A(1-400)-EGFP (domain or fragment)”, for which the percent of the MT binding of Spc105-B(1-400) in assay [1] is < 50%.

Bub3-EGFP (natural protein) showed a fold Bub3 bound against the unphosphorylated MBP-TST control in assay [2] of 30 fold. The substance also yielded a fold Bub3 bound against the MBP-TST control in assay [3] of 2 fold.

On to “Spc105-B(1-400)-EGFP (domain or fragment)”, for which the percent of the MT binding of Spc105-B(1-400) in 150 mM KCl is 14.6% in assay [1] and 12.5% in assay [4]. In addition, in assay [1], the percent reduction of MT binding against Spc105-B(1-400) without 1,6-HD turned out to be 40%.

In turn, “Spc105-B(1-400)-EGFP phosphorylated with Sli15(INBOX)-Ipl1 (domain or fragment)” yielded a percent of the MT binding of unphosphorylated Spc105-B(1-400) in 150 mM KCl in assay [1] of 22.1%.
